Common to all, as to test: SPR (Biacore), receptor-Fc captured by anti-Fc antibody, ligand injected
A general note: SPR reads the build-up and loss of mass on a sensor chip optically.

One assay addresses T1, activin AC (UniProt P08476 311-426; P55103 237-352).
T1 sequence (looked up) 1: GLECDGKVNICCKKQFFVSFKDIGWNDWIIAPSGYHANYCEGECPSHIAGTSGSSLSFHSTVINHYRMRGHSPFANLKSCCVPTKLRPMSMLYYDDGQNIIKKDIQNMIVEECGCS
T1 sequence (looked up) 2: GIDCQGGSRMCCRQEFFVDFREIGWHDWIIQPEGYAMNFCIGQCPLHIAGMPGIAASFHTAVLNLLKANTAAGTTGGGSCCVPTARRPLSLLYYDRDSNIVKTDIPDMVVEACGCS
As to the method:
(§1) A Biacore™-based binding assay was used to compare ligand binding selectivity of the ActRIIB-Fc:ALK7-Fc heterodimeric complex described above with that of ActRIIB-Fc and ALK7-Fc homodimeric complexes. The ActRIIB-Fc:ALK7-Fc heterodimer, ActRIIB-Fc homodimer, and ALK7-Fc homodimer were independently captured onto the system using an anti-Fc antibody. Ligands were injected and allowed to flow over the captured receptor protein. Results are summarized in the table below, in which ligand off-rates (kd) most indicative of effective ligand traps are denoted by bold text.

For a further assay, the target named is T2, BMP6 (UniProt P22004 375-513, limits assumed).
T2 sequence (looked up): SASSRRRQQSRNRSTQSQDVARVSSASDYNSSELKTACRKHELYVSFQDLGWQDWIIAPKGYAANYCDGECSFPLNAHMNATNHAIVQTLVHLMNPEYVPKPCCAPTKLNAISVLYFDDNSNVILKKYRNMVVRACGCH
The protocol:
as §1

The target of the next assay is T3, activin C (UniProt P55103 237-352).
T3 sequence (looked up): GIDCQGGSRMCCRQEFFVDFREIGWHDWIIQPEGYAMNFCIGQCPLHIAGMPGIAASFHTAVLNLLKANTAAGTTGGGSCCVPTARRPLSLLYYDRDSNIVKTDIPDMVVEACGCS
The protocol: as §1

For a further assay, the target named is T4, activin A (UniProt P08476 311-426).
T4 sequence (looked up): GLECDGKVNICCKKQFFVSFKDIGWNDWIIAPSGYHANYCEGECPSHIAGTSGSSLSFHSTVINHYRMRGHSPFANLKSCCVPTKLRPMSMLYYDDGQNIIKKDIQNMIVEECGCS
The protocol: as §1

Another assay addresses T5, activin B (UniProt P09529 293-407).
T5 sequence (looked up): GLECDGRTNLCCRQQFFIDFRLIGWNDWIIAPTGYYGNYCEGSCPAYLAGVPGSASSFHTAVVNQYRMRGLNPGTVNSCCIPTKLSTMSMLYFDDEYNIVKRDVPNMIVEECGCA
The protocol:
as §1

The target of another assay is T6, BMP5 (UniProt P22003 317-454, limits assumed).
T6 sequence (looked up): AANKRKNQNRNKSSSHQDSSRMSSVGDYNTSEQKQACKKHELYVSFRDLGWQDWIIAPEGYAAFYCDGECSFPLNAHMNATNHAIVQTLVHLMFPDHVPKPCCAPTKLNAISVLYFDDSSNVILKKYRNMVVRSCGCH
As to the method:
as §1

From patent US20220289852A1 (ACCELERON PHARMA, published 2022) come the findings set out here.

B1: ActRIIB-Fc homodimer (Fc fusion)
chain: GRGEAETRECIYYNANWELERTNQSGLERCEGEQDKRLHCYASWRNSSGTIELVKKGCWLDDFNCYDRQECVATEENPQVYFCCCEGNFCNERFTHLPEAGGPEVTYEPPPTAPT
notes: also called ActRIIB-Fc homodimeric complex; ActRIIB homodimer; not shown: linker and Fc domain of the homodimer
A word on the Kd: it is a measure of binding affinity in units of concentration. Low readings indicate higher affinity, high ones lower affinity. Usually koff stands for a measure of how fast the partners let go of each other. The kon is the rate constant with which the complex forms. A low value points to slow association. As to B1, the Kd with activin AC was 0.16 nM; with BMP6, 0.16 nM; with activin A it was 0.011 nM; with activin B, 0.008 nM; with BMP5, 2.9 nM. In addition, the off-rate (koff) was found to be 0.0031 s⁻¹ with activin AC; 0.0039 s⁻¹ with BMP6; 0.00014 s⁻¹ with activin A; 0.00016 s⁻¹ with activin B; 0.075 s⁻¹ with BMP5. Besides, the kon turned out to be 2e+07 M⁻¹ s⁻¹ in the assay with activin AC; 2.4e+07 M⁻¹ s⁻¹ in the assay with BMP6; 1.3e+07 M⁻¹ s⁻¹ with activin A; 1.5e+07 M⁻¹ s⁻¹ with activin B; 2.6e+07 M⁻¹ s⁻¹ in the assay with BMP5. Besides, the binding result with activin C was “no binding”.
